The data set deals with Eosinophil peroxidase (EPX) (Homo sapiens) (UniProt P11678+P11678). Briefly: cleavage_in_vitro. As to conditions: 30 min.
Eosinophil peroxidase (EPX) (Homo sapiens), sequence (P11678 140-250, chain 1 of 2): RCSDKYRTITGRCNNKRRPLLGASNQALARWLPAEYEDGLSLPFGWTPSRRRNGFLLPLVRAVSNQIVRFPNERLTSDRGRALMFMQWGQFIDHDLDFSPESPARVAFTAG
Eosinophil peroxidase (EPX) (Homo sapiens), sequence (P11678 251-715, chain 2 of 2): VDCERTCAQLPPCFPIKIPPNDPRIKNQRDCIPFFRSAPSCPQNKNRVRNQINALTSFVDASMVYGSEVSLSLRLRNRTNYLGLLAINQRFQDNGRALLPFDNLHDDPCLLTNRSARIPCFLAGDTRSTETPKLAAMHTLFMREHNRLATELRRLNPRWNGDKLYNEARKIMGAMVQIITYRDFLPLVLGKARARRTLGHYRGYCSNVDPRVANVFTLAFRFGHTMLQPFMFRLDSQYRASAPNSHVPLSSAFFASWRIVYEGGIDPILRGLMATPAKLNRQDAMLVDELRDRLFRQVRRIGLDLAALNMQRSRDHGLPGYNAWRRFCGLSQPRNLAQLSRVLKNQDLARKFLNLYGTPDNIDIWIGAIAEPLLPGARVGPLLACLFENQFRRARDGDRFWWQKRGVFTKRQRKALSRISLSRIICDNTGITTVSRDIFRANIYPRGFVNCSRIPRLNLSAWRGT

Sequence “CTATGAACTGACTATGACCTCACTACCAAGATGCCATCCTACCAACGGTCGATGGATGAGTAATACAGGCCGGATGGGTACAGTCGTAATCTATTCGAGCTCTGAACTCG [EPDz20 ligated to FS]” had an activity (single riboadenosine cleavage site in FS flanked by dabcyl-dT (5') and fluorescein-dT (3'), EPX-activated RNA-cleaving DNAzyme, selection buffer, RT, no cleavage in buffer alone) of 15 % cleavage.

“CTATGAACTGACTATGACCTCACTACCAAGATGCCATCCTACCAACGGTCGATGGATGAGTAATACAGGCCGGATGGGTACAGTCG [EPDz20M4 ligated to FS (FS-EPDz20M4)]” yielded an activity (single riboadenosine cleavage site in FS flanked by dabcyl-dT (5') and fluorescein-dT (3') [13 dabcyl-dT, 14 riboadenosine (R), 15 fluorescein-dT], 50 nM EPX, selection buffer with 15 mM MgCl2, RT) of 18 % cleavage. Moreover, the Kd (single riboadenosine cleavage site in FS flanked by dabcyl-dT (5') and fluorescein-dT (3') [13 dabcyl-dT, 14 riboadenosine (R), 15 fluorescein-dT], apparent Kd = EPX concentration giving 50% of maximum cleavage, 50 mM HEPES pH 7.5, 150 mM NaCl, 15 mM MgCl2, 0.01% Tween20, RT) was 30 nM.

(Values after US20260176675.)
